Data as given in US20140120095A1 (Boehringer Ingelheim, published 2014).
Numbering of substitutions follows the chain as printed.

T1: human DLL1 (human, UniProt O00548 18-545, limits assumed)
T1 construct: also called hDLL1
T1 sequence (looked up): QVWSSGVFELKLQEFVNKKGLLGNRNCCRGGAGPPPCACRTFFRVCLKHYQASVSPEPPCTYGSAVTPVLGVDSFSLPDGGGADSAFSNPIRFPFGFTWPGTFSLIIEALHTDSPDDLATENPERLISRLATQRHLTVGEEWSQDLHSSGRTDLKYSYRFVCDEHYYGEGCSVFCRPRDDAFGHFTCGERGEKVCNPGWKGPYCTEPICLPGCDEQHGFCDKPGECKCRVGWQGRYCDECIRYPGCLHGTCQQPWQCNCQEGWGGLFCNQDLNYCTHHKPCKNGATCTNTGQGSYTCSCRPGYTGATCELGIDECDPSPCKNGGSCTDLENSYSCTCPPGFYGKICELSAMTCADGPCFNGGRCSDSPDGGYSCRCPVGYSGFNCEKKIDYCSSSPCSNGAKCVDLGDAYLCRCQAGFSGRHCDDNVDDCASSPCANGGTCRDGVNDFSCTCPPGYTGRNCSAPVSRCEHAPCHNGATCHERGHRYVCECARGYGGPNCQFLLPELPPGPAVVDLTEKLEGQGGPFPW

B1: DLLBII101G08 (VHH)
VHH: EVQLVESGGGLVQAGGSLRLSCAASGRTFSSYAMAWFRQAPGKEREFVAAIRWSGGTAYYADSVQGRFTISRDNAKNTVYLQMNSLKPEDTAVYYCANRAADTRLGPYEYDYWGQGTQVTVSS
notes: also called 101G8; DLLBII101G8
B2: DLLBII129E11 (VHH, not shown: small tags and cut ends)
VHH: B1 VHH with F37Y, F47Y, A101P, G106R, E109L
B3: DLLBII129B05 (VHH, not shown: small tags and cut ends)
VHH: B1 VHH with F37Y, F47Y, A101P, G106A, Y112H
B4: DLLBII115A05 (VHH)
VHH: EVQLVESGGGLVQPGGSLRLSCAASGFTFGSYDMSWVRRSPGKGPEWVSSINSGGGSTYYADFVKGRFTISRDNAKNTLYLQMNSLKPEDTAVYYCAADRYIRARQGDYWGAYEYDYWGQGTQVTVSS
notes: also called 115A5; DLLBII115A5
B5: DLLBII136C07 (VHH, not shown: small tags and cut ends)
VHH: B4 VHH with F63Y, R103W, D108E

What was measured:
[1] = target: T2, mouse DLL4 overexpressed on cells (mouse, UniProt Q9JI71 27-686); test: FACS titration on HEK293-mDLL4 cells, MCF
T2 construct: whole, on cells; also called CHO-mDLL4; CHO-mDII4
Procedure: In order to determine the cynomologus cross-reactivity of the VHHs, a FACS binding experiment is performed. Cynomolgus DII4 expressing HEK293 cells (transient or stable transfection) are used for a titration binding experiment of the VHHs. After a 30 minutes incubation on ice, all samples are washed and detection is performed by applying anti-c-myc˜Alexa647 (Santa Cruz Biotechnology, Santa Cruz, Calif., USA). Human and mouse DII4 overexpressing HEK293 cells are taken as reference. The mean MCF value is determined on the FACS Array and used for calculation of the EC₅₀ value (see FIG. 9 A-E).

[2] = target: T3, human DLL4 overexpressed on cells (human, UniProt Q9NR61 27-685); test: FMAT, labelled hNotch1-Fc on CHO-hDLL4, periplasmic extract
T3 construct: full length human DLL4 on CHO or HEK293 cells; also called CHO-hDLL4; CHO-hDII4
From the text: (§1) All calculations are based on the FL1_total signal which comprises the average of the fluorescence per well times the number of counts per well.

[3] = target: T2, mouse DLL4 overexpressed on cells; test: FMAT, labelled hNotch1-Fc on CHO-mDLL4, periplasmic extract
From the text: as §1

human DLL1 = target: T1, human DLL1; test: binding ELISA on coated recombinant human DLL1, OD 405 nm
In short: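 Plates coated overnight at 4° C with 1 μg/mL ligand, blocked with 1% casein in PBS. VHH dilution series applied; bound VHH detected via mouse anti-myc then anti-mouse-AP conjugate.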

[4] = target: T4, human DLL4 expressed on cells (CHO-hDLL4; HEK293-hDLL4) (human, UniProt Q9NR61 27-685); test: FACS titration on human DLL4 expressing cells, detection anti-c-myc Alexa647 (Example 5.8, Example 7), MCF
T4 construct: full length human DLL4 overexpressed on CHO cells (FMAT, FACS) or HEK293 cells (reporter assay)

[5] = target: recombinant human DLL4 (C-terminally His-tagged extracellular domain, R&D Systems) (human, UniProt Q9NR61 25-522, biotinylated in the competition ELISA); test: cell-based or functional assay
[6] = target: T4, human DLL4 expressed on cells …; test: competition FMAT, labelled hNotch1-Fc on CHO-hDLL4 cells

T2 sequence (Q9JI71 27-686): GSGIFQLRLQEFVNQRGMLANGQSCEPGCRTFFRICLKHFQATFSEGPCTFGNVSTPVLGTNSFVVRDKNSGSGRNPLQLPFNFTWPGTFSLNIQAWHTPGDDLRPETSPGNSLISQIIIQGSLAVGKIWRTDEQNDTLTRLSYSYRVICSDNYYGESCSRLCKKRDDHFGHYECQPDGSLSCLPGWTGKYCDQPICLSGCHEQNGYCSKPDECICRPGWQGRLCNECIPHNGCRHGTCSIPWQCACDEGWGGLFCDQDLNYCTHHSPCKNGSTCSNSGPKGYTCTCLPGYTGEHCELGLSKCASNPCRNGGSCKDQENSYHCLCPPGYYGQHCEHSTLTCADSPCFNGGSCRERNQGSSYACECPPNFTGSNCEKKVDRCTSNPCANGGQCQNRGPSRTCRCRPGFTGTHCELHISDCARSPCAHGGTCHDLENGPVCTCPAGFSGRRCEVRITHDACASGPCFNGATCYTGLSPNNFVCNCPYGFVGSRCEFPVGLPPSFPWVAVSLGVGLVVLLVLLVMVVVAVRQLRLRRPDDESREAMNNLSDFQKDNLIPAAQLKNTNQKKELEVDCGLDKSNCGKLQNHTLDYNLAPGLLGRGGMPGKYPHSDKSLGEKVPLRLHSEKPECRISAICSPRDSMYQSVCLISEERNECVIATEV

Row | Binder | EC50 (read off the curve) [1] | % inh [2] | % inh [3] | binding result (human DLL1) | EC50 (read off the curve) [4] | IC50, DLL4-mediated HUVEC proliferation assay [5] | Inhibition (%), DLL4-mediated HUVEC proliferation assay [5] | IC50 [6]
1 | B1 | ~40 nM | 91% | 92% | no binding (tested: 5e-7 M) |  |  |  | 
2 | B2 |  |  |  |  | ~10 nM |  |  | 
3 | B3 |  |  |  |  |  | 3.7 nM | 100% | 8.2 nM
4 | B4 | ~30 nM | 74% | 84% | no binding (tested: 5e-7 M) |  |  |  | 
5 | B5 |  |  |  |  |  | 14.5 nM | 100% | 11.4 nM
